Results from US20240360223A1 (DRAGONFLY THERAPEUTICS, published 2024).

B1: Hu9.1-73-mAb (antibody, V domains shown)
VH: EVQLVESGGGLVQPGGSLRLSCAASGLPMAGFYTSWVRQAPGKGLEWVGFIRDKANGYTTEYNPSVKGRFTISADTSKNTAYLQMNSLRAEDTAVYYCAQVRRALDYWGQGTLVTVSS
VL: DIQMTQSPSSLSASVGDRVTITCKSSQSLLYSSNQNNYLAWYQQKPGKAPKLLIYWAQHLDSGVPSRFSGSGSGTDFTLTISSLQPEDFATYYCQQYYTYPYTFGQGTKVEIK
notes: Parental monoclonal antibody; also called Genentech Hu9.1-73 parental mAb
B2: Ianalumab-2-Fab (bispecific antibody, human IgG1, kappa)
heavy 1: not shown
light 1: DIVLTQSPATLSLSPGERATLSCRASQFILPEYLSWYQQKPGQAPRLLIYGSSSRATGVPARFSGSGSGTDFTLTISSLEPEDFAVYYCQQFYSSPLTFGQGTKVEIKRTVAAPSVFIFPPSDEQLKSGTASVVCLLNNFYPREAKVQWKVDNALQSGNSQESVTEQDSKDSTYSLSSTLTLSKADYEKHKVYACEVTHQGLSSPVTKSFNRGEC
heavy 2: not shown
light 2: DIQMTQSPSSVSASVGDRVTITCRASQGISSWLAWYQQKPGKAPKLLIYAASSLQSGVPSRFSGSGSGTDFTLTISSLQPEDFATYYCQQGVSFPRTFGGGTKVEIKRTVAAPSVFIFPPSDEQLKSGTASVVCLLNNFYPREAKVQWKVDNALQSGNSQESVTEQDSKDSTYSLSSTLTLSKADYEKHKVYACEVTHQGLSSPVTKSFNRGEC
notes: 2-Fab TriNKET: BAFF-R Fab arm and NKG2D (A49MI) Fab arm, F405L/K409R Fc
B3: Hu9.1-73-2-Fab (bispecific antibody, human IgG1, kappa)
heavy 1: not shown
light 1: DIQMTQSPSSLSASVGDRVTITCKSSQSLLYSSNQNNYLAWYQQKPGKAPKLLIYWAQHLDSGVPSRFSGSGSGTDFTLTISSLQPEDFATYYCQQYYTYPYTFGQGTKVEIKRTVAAPSVFIFPPSDEQLKSGTASVVCLLNNFYPREAKVQWKVDNALQSGNSQESVTEQDSKDSTYSLSSTLTLSKADYEKHKVYACEVTHQGLSSPVTKSFNRGEC
heavy 2: not shown
light 2: B2 light 2
notes: 2-Fab TriNKET
B4: Hu9.1-73-F3′ (bispecific antibody, human IgG1, kappa)
chain: DIQMTQSPSSLSASVGDRVTITCKSSQSLLYSSNQNNYLAWYQQKPGKAPKLLIYWAQHLDSGVPSRFSGSGSGTDFTLTISSLQPEDFATYYCQQYYTYPYTFGCGTKVEIKGGGGSGGGGSGGGGSGGGGSEVQLVESGGGLVQPGGSLRLSCAASGLPMAGFYTSWVRQAPGKCLEWVGFIRDKANGYTTEYNPSVKGRFTISADTSKNTAYLQMNSLRAEDTAVYYCAQVRRALDYWGQGTLVTVSSASDKTHTCPPCPAPELLGGPSVFLFPPKPKDTLMISRTPEVTCVVVDVSHEDPEVKFNWYVDGVEVHNAKTKPREEQYNSTYRVVSVLTVLHQDWLNGKEYKCKVSNKALPAPIEKTISKAKGQPREPRVYTLPPCRDELTKNQVSLTCLVKGFYPSDIAVEWESNGQPENNYKTTPPVLVSDGSFTLYSKLTVDKSRWQQGNVFSCSVMHEALHNHYTQKSLSLSPG
heavy: EVQLVESGGGLVKPGGSLRLSCAASGFTFSSYSMNWVRQAPGKGLEWVSSISSSSSYIYYADSVKGRFTISRDNAKNSLYLQMNSLRAEDTAVYYCARGAPIGAAAGWFDPWGQGTLVTVSSASTKGPSVFPLAPSSKSTSGGTAALGCLVKDYFPEPVTVSWNSGALTSGVHTFPAVLQSSGLYSLSSVVTVPSSSLGTQTYICNVNHKPSNTKVDKKVEPKSCDKTHTCPPCPAPELLGGPSVFLFPPKPKDTLMISRTPEVTCVVVDVSHEDPEVKFNWYVDGVEVHNAKTKPREEQYNSTYRVVSVLTVLHQDWLNGKEYKCKVSNKALPAPIEKTISKAKGQPREPQVCTLPPSRDELTENQVSLTCLVKGFYPSDIAVEWESNGQPENNYKTTPPVLDSDGSFFLYSWLTVDKSRWQQGNVFSCSVMHEALHNHYTQKSLSLSPG
light: B2 light 2
notes: F3′ TriNKET; also called Hu9.1-73-F3′ TriNKET

Molecular target: T1, human BAFF-R expressed on cells (human, UniProt Q96RJ3 1-184)
T1 construct: Cell surface BAFF-R, endogenous on B cell lines and primary B cells or overexpressed on isogenic CHO cells; also called hBAFF-R; hBAFF-R-CHO
Experiment: flow cytometry, RAJI cells
Procedure: The BAFF-R positive human B lymphoblastoid RAJI cell line was used to assess TriNKET binding to cell surface BAFF-R. Certain BAFF-R TriNKETs in the 2-Fab and F3′ formats, as described in the “exemplary multispecific binding proteins” subsection above, were diluted and incubated with Raji cells. Binding patterns of TriNKETs and parental monoclonal antibodies were detected using a fluorophore conjugated anti-human IgG secondary antibody. The cells were then incubated with a fluorophore conjugated anti-human IgG secondary antibody and were analyzed by flow cytometry. The mean fluorescence intensity (MFI) values were normalized to secondary antibody only controls to obtain fold over background (FOB) values.

| Binder | EC50 [nM] |
| --- | --- |
| B1 | 0.379 |
| B2 | 0.115 |
| B3 | 1.05 |
| B4 | 0.765 |
